Experimental data taken from PMC10994351.
Values belong to the substance of their own block, whether it stands above or below them.

Tests used:
[1] = molecular target: [F13A]myrArf1 (human) (UniProt P84077)
[2] = molecular target: wild-type myristoylated Arf1 (WT myrArf1) (human) (UniProt P84077)
[3] = molecular target: [L8A/F13A]myrArf1 (human) (UniProt P84077)
[4] = molecular target: [L8A]myrArf1 (human) (UniProt P84077)
[5] = molecular target: [L8K]myrArf1 (human) (UniProt P84077)

C50 (nM) of the GAP assay: full-length AGAP1 needed for 50% of maximum hydrolysis of [alpha-32P]GTP bound to myrArf1, LUVs with PIP2, 30°C, 3 min [1]: 340 nM
C50 (nM) of the GAP assay: full-length AGAP1 needed for 50% of maximum hydrolysis of [alpha-32P]GTP bound to myrArf1, LUVs with PIP2, 30°C, 3 min [2]: 1.6 nM
Substance: full-length AGAP1, His-tagged (from UniProt Q9UPQ3 1-857) (enzyme)

C50 (nM) of the GAP assay: ASAP1 PZA needed for 50% of maximum hydrolysis of [alpha-32P]GTP bound to myrArf1, LUVs with PIP2, 30°C, 3 min [1]: 2100 nM
C50 (nM) of the GAP assay: ASAP1 PZA needed for 50% of maximum hydrolysis of [alpha-32P]GTP bound to myrArf1, LUVs with PIP2, 30°C, 3 min [3]: 0.7 nM
C50 (nM) of the GAP assay: ASAP1 PZA needed for 50% of maximum hydrolysis of [alpha-32P]GTP bound to myrArf1, LUVs with PIP2, 30°C, 3 min [4]: 0.84 nM
C50 (nM) of the GAP assay: ASAP1 PZA needed for 50% of maximum hydrolysis of [alpha-32P]GTP bound to myrArf1, LUVs with PIP2, 30°C, 3 min [5]: 0.84 nM
C50 (nM) of the GAP assay: ASAP1 PZA needed for 50% of maximum hydrolysis of [alpha-32P]GTP bound to myrArf1, LUVs with PIP2, 30°C, 3 min [2]: 0.79 nM
Substance: PH, Arf GAP, and ankyrin repeats (PZA construct) of ASAP1, His-tagged (domain or fragment)

C50 (nM) of the GAP assay: ARAP1 PPZA needed for 50% of maximum hydrolysis of [alpha-32P]GTP bound to myrArf1, LUVs with PIP3, 30°C, 3 min [1]: 210 nM
C50 (nM) of the GAP assay: ARAP1 PPZA needed for 50% of maximum hydrolysis of [alpha-32P]GTP bound to myrArf1, LUVs with PIP3, 30°C, 3 min [2]: 0.14 nM
Substance: tandem PH domains, Arf GAP, and ankyrin repeats of ARAP1 (PPZA construct), His-tagged (domain or fragment)
